Experiment [1] has as its target Mto2-134A136A (full-length, recombinant) (S. pombe) (UniProt Q9USP7). Nature of the experiment: SEC-MALS. (In general: SEC sorts molecules by how far they enter the pores of the column.)
The target in experiment [2] is Mto2-134AAA (full-length, recombinant) (S. pombe) (UniProt Q9USP7). As to the kind of experiment: SEC-MALS.

The results in this text go back to doi:10.1101/754457.

Consider “Mto2-134A136A (full-length, recombinant) (from UniProt Q9USP7 1-397) (natural protein)”, for which the stoichiometry N in experiment [1] was 2.
As to “Mto2-134AAA (full-length, recombinant) (from UniProt Q9USP7 1-397) (natural protein)”, the stoichiometry N in experiment [2] was found to be 2.

For orientation: stoichiometry N means the number of molecules, sites or subunits per partner or assembly.
